Assay results taken from paper doi:10.1101/2022.04.02.486822 (bioRxiv, 2022).

Biological target: the molecule itself
Assay: crystal structure

B1: E. coli glyoxylate reductase/hydroxypyruvate reductase A (EcGhrA), wild type, His6-tagged (enzyme, UniProt P75913 1-312, looked up)
chain: MDIIFYHPTFDTQWWIEALRKAIPQARVRAWKSGDNDSADYALVWHPPVEMLAGRDLKAVFALGAGVDSILSKLQAHPEMLNPSVPLFRLEDTGMGEQMQEYAVSQVLHWFRRFDDYRIQQNSSHWQPLPEYHREDFTIGILGAGVLGSKVAQSLQTWRFPLRCWSRTRKSWPGVQSFAGREELSAFLSQCRVLINLLPNTPETVGIINQQLLEKLPDGAYLLNLARGVHVVEDDLLAALDSGKVKGAMLDVFNREPLPPESPLWQHPRVTITPHVAAITRPAEAVEYISRTIAQLEKGERVCGQVDRARGY
- binding result: binds
